Experimental findings from US20130095122A1, “Peptides or Antibodies Which Bind to Melanoma Inhibitory Activity (MIA) Protein” (priority 2010, published 2013) are described below.

B1: peptide AR71 (Ac-FHWRYPLPLPGQ-NH2) (peptide)
peptide: Ac-FHWRYPLPLPGQ-NH2
notes: Dodecapeptide previously identified by phage display
B2: melanoma inhibitory activity (MIA) protein, recombinant human wild type (other)
chain: GPMPKLADRKLCADQECSHPISMAVALQDYMAPDCRFLTIHRGQVVYVFSKLKGRGRLFWGGSVQGDYYGDLAARLGYFPSSIVREDQTLKPGKVDVKTDKWDFYCQ
notes: In the HTFP assay one copy is labelled with Ru(bpy)3 (in solution) and the other is a biotin conjugate immobilised on streptavidin plates; 15N-enriched MIA was used for NMR; also called wt MIA; MIA wt (RTS)
B3: MIA mutant V46F/S81P (other)
chain: B2 chain with V46F, S81P
notes: Expressed in the RTS in vitro transcription/translation system
B4: MIA mutant K91N (other)
chain: B2 chain with K91N
notes: as for B3
B5: MIA mutant D29G/Y69H (other)
chain: B2 chain with D29G, Y69H
notes: as for B3
B6: MIA mutant G61R (other)
chain: B2 chain with G61R
notes: Expressed in the RTS in vitro transcription/translation system, unpurified
B7: MIA mutant T89P (other)
chain: B2 chain with T89P
notes: as for B3

Residue numbers refer to the chain shown, from its start. In names and notes the source's numbering stands.

For one data set, the system named is hMSC. The data set can be described thus: Hanging drop assay (chondrogenic differentiation). Particulars: after day 4 (FIG. 9). The format is cell-based, human. The method, then:
To generate spheroids the hMSC were detached from the culture flask by adding 1 ml Trypsin-EDTA (Provitro). After incubation for a 5 minutes 1 ml neutralizing solution (Provitro) and 8 ml HMSC proliferation medium were added. After centrifugation for 4 min at 1200 rpm and resuspension in Incomplete Chondrogenesis Induction Medium (DMEM with glucose (4.5 g/L), penicillin (400 units/ml) streptomycin (50 μg/ml), L-glutamine (300 μg/ml), sodium pyruvate (1 mM), L-ascorbic acid 2-phosphate (0.17 mM), L-proline ([…]), dexamethasone (1 μM) and ITS premix (BD Biosciences, Heidelberg, Germany)), the cells were counted and adjusted to 50,000 cells/ml. 20% methocel (6 g methyl cellulose (Sigma-Aldrich, Munich, Germany), 250 ml basal medium)) was added and 25 μl of the cells suspension were dropped onto the cover of a 9 mm petri dish. For each experimental condition 10 drops were used. The petri dish was filled with PBS and the cover dish was inverted and incubated for 72 h under a humidified atmosphere of 8% CO2 at 37° C. for 1, 2, 4 and 7 d followed by RNA isolation or alcian blue staining. For treatment, TGF-beta3 (10 ng/ml, Biomol, Hamburg, Germany) was added. At day 4 NA was extracted and analysed. The experiment was repeated 4 times.

For the next data set, the target named is T1, MIA protein dimer (Homo sapiens, UniProt Q16674).
T1 construct: made in house; host or cells: cell-free Rapid Translation System RTS 500 E. coli HY Disulfite Kit (Roche)
T1 sequence (Q16674 25-131): B2 chain
In words: Western blot analysis of MIA dimer bands. Particulars: western blotting, FIG. 6. Format: biochemical. Here is the method: (§1) Protein samples were denaturated at 70° C. for 10 min after addition of reducing and denaturing Roti-Load buffer (Roth, Karlsruhe, Germany) and subsequently separated on sodium dodecyl sulfate 12.75% polyacrylamid gels (SDS-PAGE) (Invitrogen, Groningen, The Netherlands). In the multimerization studies, MIA protein (1 μg) was incubated with AR71 (2.5 μg) overnight at RT before being treated as described above. After transferring the proteins onto a polyvinylidene fluoride (PVDF) membrane (BioRad, Richmond, Va., USA), the membrane was blocked using 3% BSA/PBS for 1 h at RT and incubated with a 1:150 dilution of primary polyclonal rabbit anti MIA antibody (Biogenes, Berlin, Germany) in 3% BSA/PBS overnight at 4° C. After washing in PBS the membrane was incubated with a 1:2000 dilution of an […] coupled secondary antibody (Chemikon, Hofheim, Germany) for 2 h at RT. Finally, after washing steps, immunoreactions were visualized by nitro blue tetrazolium/5-bromo-4-chloro-3-indolyl phosphate (NBT/BCIP) (Invitrogen, Karlsruhe, Germany) staining.
For orientation: In western blotting, separated proteins are transferred to a membrane and probed.

A further data set relates to Sox9 mRNA in human MSC. The data set can be described thus: Micromass assay (chondrogenic differentiation induced by TGFβ3). The note with it: after days 3 and 7 (FIG. 8). The format is cell-based. Here is the method: For analysis of chondrogenesis human MSC differentiation was performed in high density culture. For this, 3×10^5 cells were seeded into each well of a six-well plate. Cells were cultured for the indicated period in induction medium including DMEM (PAA), high glucose (Sigma), 20% fetal calf serum (FCS, PAN Biotech GmbH), MEM Vitamins (Invitrogen), penicillin (100 U/ml), streptomycin (10 μg/ml) (both Sigma), Amphotericin B (2.5 μg/ml) (PAN Biotech GmbH), 0.1 μM dexamethasone, 1 mM sodium pyruvate, 0.17 mM ascorbic acid-2-phosphate, 0.35 mM proline (all Sigma), insulin (5 μg/ml), transferring (5 μg), selenious acid (5 ng) (ITS Premix, Becton Dickinson) and 10 ng/ml human TGF-β3 (R&D Systems). The medium was changed every second day. All groups were done in triplicate. Each experiment was repeated three times. Analysis was performed on RNA level.

A further data set concerns Mel Im melanoma cells. In words: Boyden chamber invasion assay (MIA activity). Format: cell-based, human. Particulars: MIA pre-incubated with peptide, Mel Im cells (FIG. 7). Here is the method:
Invasion assays were performed in Boyden Chambers containing polycarbonate filters with 8-μm pore size (Neuro Probe, Gaithersburg, Md., USA) essentially as described previously.^13 Filters were coated with matrigel, a commercially available reconstituted basement membrane (diluted 1:3 in H2O; BD Bioscience, Bradford, Mass., USA). The lower compartment was filled with fibroblast-conditioned medium used as a chemo attractant. Mel Im melanoma cells were harvested by trypsinization for 2 min at RT, resuspended in DMEM without FCS at a density 2.5×10^4 cells/mL, and placed in the upper compartment of the chamber. Except for the control experiment with untreated cells and experiments where cells were only treated with the respective peptide, MIA was added to the cell suspension at a final concentration of 200 ng/mL. Peptide AR71 (sequence: Ac-FHWRYPLPLPGQ-NH2) was used at a final concentration of 1 μM. MIA expressing murine B16 melanoma cells stably co-transfected with Sig-AR71-HisTag containing pCMX-PL1 vector^27 and an antibiotic resistance comprising plasmid (pCDNA3), and the respective mock control were also investigated for their ability to migrate. Therefore, cells were harvested by trypsinization for 2 min at RT, resuspended in DMEM without FCS at a density 2.5×10^4 cells/mL, and placed in the upper compartment of the chamber. After incubation at 37° C. for 4 h filters were removed. Cells adhering to the lower surface of the filter were fixed, stained, and counted. Experiments were carried out in triplicates and repeated at least three times.

The target in data set [1] is B2. The data set can be described thus: HTFP competition assay.
The target of data set [2] is B2. The data set can be described thus: HTFP competition assay: displacement of MIA-Ru(bpy)3 from immobilised MIA-biotin. Here is the method:
(§2) In the control lanes the FP signal of MIA-Ru(bpy)₃ was measured in a well coated with MIA-biotin compared to an uncoated well. The significant increase in FP in the well coated with MIA-biotin indicates binding of MIA-Ru(bpy)₃ to the immobilized MIA-biotin. The binding of MIA-inhibitory compound AR71 promotes dissociation of MIA dimers and displaces the surface-bound MIA-Ru(bpy)₃, as reflected by a decrease in fluorescence polarization signal. […] Pre-incubation of MIA with the respective inhibitory peptide results in a complete neutralization of the MIA effect.
(§3) All measurements were performed at RT on a Polarstar Optima microplate reader (BMG Labtech, Offenburg, Germany). A 390-10 nm bandpass filter was used for excitation while a 520 nm longpass filter was used for the emission light. Even though the extinction coefficient is higher at longer wavelengths, the inventors chose a shorter excitation wavelength as this led to higher polarization values. MIA-Ru(bpy)₃ was prepared and tested for functional activity as described previously.¹⁴ A MIA-Ru(bpy)₃ concentration of 55 fM was used in all experiments. […] All measurements were performed in DPBS without calcium or magnesium (PAN Biotech GmbH, Aidenbach, Germany).

Data set [3] deals with the molecule itself. In words: HTFP assay: MIA-Ru(bpy)3 on immobilised MIA-biotin, increase in FP signal. The method, then: as §2, §3
Data set [4] deals with the molecule itself. In words: Western blot, dimer band (FIG. 1B legend). The method, then:
as §1, with “In” for “Protein samples were denaturated at 70° C. for 10 min after addition of reducing and denaturing Roti-Load buffer (Roth, Karlsruhe, Germany) and subsequently separated on sodium dodecyl sulfate 12.75% polyacrylamid gels (SDS-PAGE) (Invitrogen, Groningen, The Netherlands). In”
(§4) Having identified the most likely positions of the dimerization interfaces, mutants of MIA were tested for their capability to form dimers by Western blot analysis (FIG. 1B). MIA mutants were expressed in an in vitro transcription/translation system. […] The sites of mutations not affecting functional activity (FIG. 1D, depicted by amino acid labels D29, S81 etc.) are located outside the dimerization regions, whereas G61R (FIG. 1D, depicted by G61) is buried in the dimerization cleft (depicted by the darker grey are in the left panel) in close proximity to the distal loop.

Data set [5] concerns the molecule itself. The data set can be described thus: Western blot for dimer band, RTS-expressed mutant. Here is the method: as §1, with “In” for “Protein samples were denaturated at 70° C. for 10 min after addition of reducing and denaturing Roti-Load buffer (Roth, Karlsruhe, Germany) and subsequently separated on sodium dodecyl sulfate 12.75% polyacrylamid gels (SDS-PAGE) (Invitrogen, Groningen, The Netherlands). In”
as §4

“FHWH (Peptide Sequence identified from HTFP assay screening) [JPT55]”: in the data set with hMSC, the “induction of Aggrecan during differentiation” value is “inhibit the induction”, the “induction of Sox9 during differentiation” value is listed as “inhibit the induction” and the “induction of collagen type II during differentiation” value is listed as “inhibit the induction”.

For the molecule “FHWRYPDPDPGQ (Peptide Sequence identified from HTFP assay screening) [JPT79]”, the “inhibition of dimerization of MIA” value in the data set with MIA protein dimer is given as “efficiently inhibited”.

With “HHH (Peptide Sequence identified from HTFP assay screening) [JPT71]”, the “induction of Sox9 mRNA by TGFβ3” value in the data set on Sox9 mRNA in human MSC is on record as “inhibit the induction of Sox9 mRNA by TGFβ3 significantly”.

Take “WHF (Peptide Sequence identified from HTFP assay screening) [JPT67]”: in the data set on Mel Im melanoma cells, the “inhibition of MIA-activity (neutralization of the MIA effect on invasion)” value is “inhibit MIA-activity”.

As for “WWW (Peptide Sequence identified from HTFP assay screening) [JPT73]”, in the data set on Mel Im melanoma cells, the “inhibition of MIA-activity (neutralization of the MIA effect on invasion)” value is given as “inhibit MIA-activity”. In the data set on hMSC, the “induction of Aggrecan during differentiation” value was “inhibit the induction”, the “induction of Sox9 during differentiation” value is recorded as “inhibit the induction” and the “induction of collagen type II during differentiation” value is given as “inhibit the induction”.

For FHWH (also called FHWH) [peptide JPT55], the binding result in data set [1] was “binds”.

Turning to FHWRYPDPDPGQ [peptide JPT79], the binding result in data set [1] is “binds”.

On to B1, for which the binding result in data set [2] is on record as “binds”.

Regarding B2, the binding result in [3] is listed as “binds”.

As to B3, the binding result in [4] is given as “binds”.

Consider B4, for which the binding result in data set [4] is reported as “binds”.

Take B5: the binding result in [4] is recorded as “binds”.

For B6, in [5], the binding result is reported as “no binding”.

In the case of B7, the binding result in [4] is on record as “binds”.

Take WHWRYP (also called WHWRYP) [peptide JPT26]: the binding result in data set [1] is “binds”.

In the case of FHWRYPGPGPGQ [peptide JPT4], the binding result in [1] is listed as “binds”.

As for FHWRYPLPLPGQHHHHHH [peptide JPT62], the binding result in data set [1] was “binds”.

HHHHHHFHWRYPLPLPGQ [peptide JPT61]: the binding result in data set [1] was “binds”.
